According to publication PMC10469627, “Molecular basis of the glycosomal targeting of PEX11 and its mislocalization to mitochondrion in trypanosomes” (Frontiers in Cell and Developmental Biology, 2023):

Target: T1, GST-HsPEX19 (human, UniProt P40855 1-299)
T1 construct: human PEX19, expressed from pGEX4T1-HsPEX19; also called GST-tagged recombinant human PEX19; recombinant human GST-PEX19; source: E. coli BL21 (DE3), purified (Glutathione Agarose 4B)
T1 sequence (looked up): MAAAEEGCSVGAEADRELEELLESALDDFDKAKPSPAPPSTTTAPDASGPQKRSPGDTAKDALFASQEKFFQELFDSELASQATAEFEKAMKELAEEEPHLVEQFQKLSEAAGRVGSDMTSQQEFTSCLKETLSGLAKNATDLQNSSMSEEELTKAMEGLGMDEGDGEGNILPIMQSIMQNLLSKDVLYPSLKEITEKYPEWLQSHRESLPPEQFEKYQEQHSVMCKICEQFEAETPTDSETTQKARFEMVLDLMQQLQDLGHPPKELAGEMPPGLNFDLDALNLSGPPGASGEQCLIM
Experiment: peptide or protein array; 15-mer peptides (2 aa shift) on a cellulose membrane; probed with 1 µM GST fusion or GST in TBS + 3% BSA + 0.05% Tween-20, 1 h at 4°C; detected with anti-GST antibody and chemiluminescence; at least three consecutive spots counted as a potential site
Conditions: both partners purified

B1: TbPEX11 array peptides of BS3 (aa 139-159) (peptide)
peptide: VLDVVALYGALQKRASDPATS
notes: PEX11 of Trypanosoma brucei, residues 139-159 (BS3); on the array this stretch stood as consecutive overlapping 15-mers (2 aa shift), each on its own spot; source: synthetic peptides, synthesized on a cellulose membrane
binding result: binds

B2: TbPEX11 array peptides of BS2 (aa 77-99) (peptide)
peptide: CRAKGKVNMKEVLKFLRVLCNFL
notes: PEX11 of Trypanosoma brucei, residues 77-99 (BS2); on the array this stretch stood as consecutive overlapping 15-mers (2 aa shift), each on its own spot; source: synthetic peptides, synthesized on a cellulose membrane
binding result: binds

B3: TbPEX11 array peptides of BS1 (aa 13-35) (peptide)
peptide: QTDGRDKILKAFSGVFKALGSLD
notes: PEX11 of Trypanosoma brucei, residues 13-35 (BS1); on the array this stretch stood as consecutive overlapping 15-mers (2 aa shift), each on its own spot; source: synthetic peptides, synthesized on a cellulose membrane
binding result: binds
